Reference: patent US20020006638A1, “Methods for recombinant microbial production of fusion proteins and BPI-derived peptides” (priority 1998, published 2002)

How the values were obtained:
E. coli J5 = assay: Radial diffusion assay, antibacterial activity; assay type: cell-based; conditions: order: XMP.284, XMP.13, XMP.391, XMP.366, XMP.353, XMP.406, XMP.407 (most to least)
Description: To assess the antibacterial activity of the recombinantly produced peptides, additional experiments are conducted with E. coli J5 or E. coli E104 cells in a radial diffusion assay. For these experiments, cultures of E. coli J5 were grown overnight in TYE broth (15 g tryptone, 10 g yeast extract, 5 g NaCl per liter) and then grown to mid logarithmic phase in TEA broth media (Simon et al., Proc. Nat'l. Acad. Sci. (USA), 51:877-883 (1964)). E. coli J5 cells at 2-3×10^5 cells/mL were added to molten 0.8% agarose containing nutrient broth. Serial dilutions of peptides were prepared in 0.15 M NaCl. Five μl of the diluted peptides, or as a control, saline alone, were added to 3 mm wells prepared in the hardened agarose (5 μl/well). The plates were sealed with parafilm to prevent drying and incubated at 37° C. for 24 hours. Zones of inhibition were measured and the net areas of inhibition determined by subtracting the area comprising the 3 mm well from the area encompassing the 3 mm well plus the inhibition zone. Recombinantly produced peptides are assayed for antibacterial activity and compared to the equivalent synthetic peptides. […] Synthetic peptides XMP.406 and XMP.407 have the same sequences as peptides prepared from the encoded fusion protein described in Example 1, Section 7 and Example 3.

gram-negative bacteria = conditions: broad range of gram-negative bacteria; Elsbach and Weiss (1992); cited from earlier work
[1] = test system: Staphylococcus aureus (four strains), Staphylococcus epidermidis, Streptococcus faecalis, Bacillus subtilis, Micrococcus lysodeikiticus, and Listeria …; conditions: 10^−6 M or 160 μg/mL; pH of either 7.0 or 5.5; cited from earlier work
[2] = test system: Candida albicans and Candida parapsilosis; conditions: 10^−6 M; pH 7.0 or 5.5; cited from earlier work
[3] = test system: human, rabbit and sheep red blood cells and several human tumor cell lines; conditions: 10^−6 M; cited from earlier work

XMP.284: BPI 149-161, K @ 152 (G) (SKVKWLIQLFHK)
antibacterial activity, rank order of synthetic peptides (E. coli J5): the most antibacterial activity

XMP.407: BPI 147-162, P @ 147 (S), A @ 153 (W), D @ 162 (I) (PKSKVGALIQLFHKKD)
antibacterial activity, rank order of synthetic peptides (E. coli J5): the least bactericidal

B1: BPI: bactericidal/permeability-increasing protein, isolated from granules of mammalian polymorphonuclear leukocytes, approximately 55 kD (protein, UniProt P17213 32-487, looked up)
Bactericidal …: VNPGVVVRISQKGLDYASQQGTAALQKELKRIKIPDYSDSFKIKHLGKGHYSFYSMDIREFQLPSSQISMVPNVGLKFSISNANIKISGKWKAQKRFLKMSGNFDLSIEGMSISADLKLGSNPTSGKPTITCSSCSSHINSVHVHISKSKVGWLIQLFHKKIESALRNKMNSQVCEKVTNSVSSELQPYFQTLPVMTKIDSVAGINYGLVAPPATTAETLDVQMKGEFYSENHHNPPPFAPPVMEFPAAHDRMVYLGLSDYFFNTAGLVYQEAGVLKMTLRDDMIPKESKFRLTTKFFGTFLPEVAKKFPNMKIQIHVSASTPPHLSVQPTGLTFYPAVDVQAFAVLPNSSLASLFLIGMHTTGSMEVSAESNRLVGELKLDRLLLELKHSNIGPFPVELLQDIMNYIVPILVLPRVNEKLQKGFPLPTPARVQLYNVVLQPHQNFLLFGADVVYK
concentration at which anti-bacterial activity is exhibited (as low as) (gram-negative bacteria): 10^−8 to 10^−9 M | toxic effect on gram-positive organisms [1]: no toxic effect | toxic effect on fungi [2]: no toxic effect | toxicity to higher eukaryotic cells [3]: non-toxic
